According to patent publication EP4454706A1 (Universität Stuttgart, dated 2024):
Read-outs that look alike come from different tables or passages of the source.

Assays:
[1] = target: T1, human EGFR (aa 1 - 1,210), on cells (human, UniProt P00533 25-1210); assay: cell-based or functional assay
[2] = target: T1, human EGFR (aa 1 - 1,210), on cells; assay: flow cytometry, FaDu cells
CD3 on Jurkat cells = target: T2, CD3 on Jurkat cells (human, UniProt P07766 23-207); assay: flow cytometry, Jurkat cells
T2 construct: whole, on cells; also called CD3-expressing Jurkat

[3] = target: T1, human EGFR (aa 1 - 1,210), on cells; assay: flow cytometry, LIM1215 cells
[4] = target: T3, EGFR-moIgG2a-Fc fusion protein comprising the extracellular domain (aa 25 - 645) of human EGFR (human); assay: ELISA, coated EGFR-moIgG2a-Fc
T3 construct: also called EGFR wt

[5] = target: T4, EGFR-His fusion protein comprising the extracellular domain (aa 25 - 645) of human EGFR (human, UniProt P00533 25-645); assay: BLI (Octet), Fab on FAB2G sensor, EGFR-His in solution
T4 construct: also called His-tagged extracellular domain of EGFR wt

[6] = target: T5, His-tagged extracellular domain of EGFR comprising the mutation V441D (human, UniProt P00533 25-645); assay: as above
T5 construct: See m46; also called V441D (BLI antigen)

[7] = target: T6, His-tagged extracellular domain of EGFR comprising the mutation S464L (human, UniProt P00533 25-645); assay: as above
T6 construct: See m46; also called S464L (BLI antigen)

[8] = target: T7, His-tagged extracellular domain of EGFR comprising the mutation G465R (human, UniProt P00533 25-645); assay: as above
T7 construct: See m46; also called G465R (BLI antigen)

[9] = target: T8, His-tagged extracellular domain of EGFR comprising the mutation S492R (human, UniProt P00533 25-645); assay: as above
T8 construct: See m46; also called S492R (BLI antigen)

[10] = target: T4, EGFR-His fusion protein comprising the …; assay: ELISA, coated EGFR-His
[11] = target: T1, human EGFR (aa 1 - 1,210), on cells; assay: flow cytometry, DiFi cells
[12] = target: T1, human EGFR (aa 1 - 1,210), on cells; assay: flow cytometry, FaDu cells; remark: listed apart in the source
[13] = target: T3, EGFR-moIgG2a-Fc fusion protein …; assay: ELISA, coated EGFR-moIgG2a-Fc; remark: listed apart in the source
[14] = target: T4, EGFR-His fusion protein comprising the …; assay: ELISA, coated EGFR-His; remark: listed apart in the source

| EC50 [4] | Kd [5] | Kd [6] | Kd [7] | Kd [8] | Kd [9] | Binder | further results |
| --- | --- | --- | --- | --- | --- | --- | --- |
| – | – | – | – | – | – | scDb-YU250-H10 x huU3-scFv-YU250-H10 (bispecific antibody, Trivalent; detected with an anti-His antibody; also called scDb-scFv; bispecific trivalent EGFRxCD3 scDb-scFv) QVQLVQSGGGVVQPGGSLRLSCAASGFTFSSYGMHWVRQAPGKGLEWVAFIRYDGSNKYYADSVKGRFTISRDNSKNTLYLQMNSLRAEDTAVYYCAKDGNSGYDSMDYWGQGTLVTVSSGGGGSDIQMTQSPSSLSASVGDRVTITCRASQDIRNYLNWYQQKPGKAPKLLIYYTSRLHSGVPSRFSGSGSGTDFTFTISSLQPEDIATYYCQQGNTLPWTFGQGTKLEIKRGGGGSGGGGSGGGGSQVQLVQSGAEVKKPGSSVKVSCKASGGTFSGYTMNWVRQAPGQGLEWMGLINPYKGVSTYNGKFKDRVTITADKSTSTAYMELSSLRSEDTAVYYCARSGYYGDSDWYFDVWGQGTLVTVSSGGGGSQSVLTQPPSVSGAPGQRVTISCSGGSSNVGRNGVNWFQHLPEKAPKLLIYYDAFLSSGVSDRFSGSKSGTSASLAIRGLQSDDEADYYCAAWDDSLYSWVFGGGTNLTVLAAAGGSGGGGSGGGTQVQLVQSGGGVVQPGGSLRLSCAASGFTFSSYGMHWVRQAPGKGLEWVAFIRYDGSNKYYADSVKGRFTISRDNSKNTLYLQMNSLRAEDTAVYYCAKDGNSGYDSMDYWGQGTLVTVSSGGGGSGGGGSGGGGSQSVLTQPPSVSGAPGQRVTISCSGGSSNVGRNGVNWFQHLPEKAPKLLIYYDAFLSSGVSDRFSGSKSGTSASLAIRGLQSDDEADYYCAAWDDSLYSWVFGGGTNLTVLGSLHHHHHH | IC50 for cytotoxicity, FaDu + PBMCs (E:T 10:1) [1]: 0.0044 nM; IC50 for cytotoxicity, LIM1215 + PBMCs (E:T 10:1) [1]: 0.004 nM; EC50 [2]: 0.74 nM; EC50 (CD3 on Jurkat cells): > 10 nM; EC50 [3]: 0.31 nM |
| – | – | – | – | – | – | scDb YU250-H10 x huU3 (bispecific antibody, Bivalent single-chain diabody; detected with an anti-His antibody; also called bispecific EGFRxCD3 scDb) QVQLVQSGGGVVQPGGSLRLSCAASGFTFSSYGMHWVRQAPGKGLEWVAFIRYDGSNKYYADSVKGRFTISRDNSKNTLYLQMNSLRAEDTAVYYCAKDGNSGYDSMDYWGQGTLVTVSSGGGGSDIQMTQSPSSLSASVGDRVTITCRASQDIRNYLNWYQQKPGKAPKLLIYYTSRLHSGVPSRFSGSGSGTDFTFTISSLQPEDIATYYCQQGNTLPWTFGQGTKLEIKRGGGGSGGGGSGGGGSQVQLVQSGAEVKKPGSSVKVSCKASGGTFSGYTMNWVRQAPGQGLEWMGLINPYKGVSTYNGKFKDRVTITADKSTSTAYMELSSLRSEDTAVYYCARSGYYGDSDWYFDVWGQGTLVTVSSGGGGSQSVLTQPPSVSGAPGQRVTISCSGGSSNVGRNGVNWFQHLPEKAPKLLIYYDAFLSSGVSDRFSGSKSGTSASLAIRGLQSDDEADYYCAAWDDSLYSWVFGGGTNLTVLAAAGGSGGGGSGGGTGGGGSLHHHHHH | IC50 for cytotoxicity, FaDu + PBMCs (E:T 10:1) [1]: 0.0181 nM; IC50 for cytotoxicity, LIM1215 + PBMCs (E:T 10:1) [1]: 0.0602 nM; EC50 [2]: 1.68 nM; EC50 (CD3 on Jurkat cells): 7.56 nM; EC50 [3]: 1.02 nM |
| 2.79 nM | < 100 nM | < 10000 nM | < 10000 nM | < 10000 nM | < 10000 nM | Fab-His MKU011-A7 (Fab, V domains shown, also called Fab MKU011-A7; His-tagged anti-EGFR Fab MKU011-A7) VH: QVQLVQSGGGVVQPGGSLRLSCAASGFTFSSYGMHWVRQAPGKGLEWVAFIRYDGSNKYYADSVKGRFTISRDNSKNTLYLQMNSLRAEDTAVYYCAKDGNSGYDSMDYWGQGTLVTVSS VL: QPVLTQSPSASGTPGQRVTISCSGVSSNIGRNYVYWYQQFPGTAPKLLIYATHQRPSGVPDRFSGSKSGTSASLAISGLRSEDEANYYCAAWDDGVTGWVFGGGTKLTVLG | – |
| – | < 100 nM | < 10000 nM | < 10000 nM | < 10000 nM | < 10000 nM | Fab-His YU250-A02 (Fab, V domains shown, Roles inferred as for IgG YU250-A02; also called Fab YU250-A02) VH: QVQLQESGGGVVQPGGSLRLSCAASGFTFSSYGMHWVRQAPGKGLEWVAFIRYDGSNKYYADSVKGRFTISRDNSKNTLYLQMNSLRAEDTAVYYCAKDGNSGYDSMDYWGQGTLVTVSS VL: QSVLTQPPSVSGAPGQRVTISCSGGSSNVGRNGVNWFQHLPEKAPKLLIYYDAFLSSGVSDRFSGSKSGTSASLAIRGLQSEDEADYYCASWDDSLTGWVFGGGTKLTVLG | – |
| 0.32 nM | – | – | – | – | – | IgG1 MKU011-A7 (antibody, V domains shown, Fully human IgG1; also called IgG MKU011-A7; IgG MKU-011-A07) VH: QVQLVQSGGGVVQPGGSLRLSCAASGFTFSSYGMHWVRQAPGKGLEWVAFIRYDGSNKYYADSVKGRFTISRDNSKNTLYLQMNSLRAEDTAVYYCAKDGNSGYDSMDYWGQGTLVTVSS VL: QPVLTQSPSASGTPGQRVTISCSGVSSNIGRNYVYWYQQFPGTAPKLLIYATHQRPSGVPDRFSGSKSGTSASLAISGLRSEDEANYYCAAWDDGVTGWVFGGGTKLTVLG | EC50 [10]: 0.19 nM; EC50 [11]: 0.81 nM; EC50 [12]: 0.35 nM |
| 0.59 nM | < 100 nM | < 10000 nM | < 10000 nM | < 10000 nM | < 10000 nM | Fab-His YU250-H10 (Fab, V domains shown, T0001 gives '6 and 8' and '9 and 11' for Fab-His YU250-H10; Roles inferred; also called Fab YU250-H10) VH: QVQLVQSGGGVVQPGGSLRLSCAASGFTFSSYGMHWVRQAPGKGLEWVAFIRYDGSNKYYADSVKGRFTISRDNSKNTLYLQMNSLRAEDTAVYYCAKDGNSGYDSMDYWGQGTLVTVSS VL: QSVLTQPPSVSGAPGQRVTISCSGGSSNVGRNGVNWFQHLPEKAPKLLIYYDAFLSSGVSDRFSGSKSGTSASLAIRGLQSDDEADYYCAAWDDSLYSWVFGGGTNLTVLG | fold increased binding against Fab-His MKU011-A7 [13]: 4.7 fold |
| – | – | – | – | – | – | IgG YU250-H10 wt (parental antibody of Example 5) (antibody, kept as a molecule of its own; Roles inferred) light: QSVLTQPPSVSGAPGQRVTISCSGGSSNVGRNGVNWFQHLPEKAPKLLIYYDAFLSSGVSDRFSGSKSGTSASLAIRGLQSDDEADYYCAAWDDSLYSWVFGGGTNLTVLGQPKAAPSVTLFPPSSEELQANKATLVCLISDFYPGAVTVAWKADSSPVKAGVETTTPSKQSNNKYAASSYLSLTPEQWKSHRSYSCQVTHEGSTVEKTVAPTECS heavy: not shown | EC50 [14]: 0.49 nM |
| – | – | – | – | – | – | IgG YU250-H10 variant VL N126K (antibody, Potential glycosylation site in VL deleted (N126K); Roles inferred; also called VL N1216K) light: QSVLTQPPSVSGAPGQRVTISCSGGSSNVGRNGVNWFQHLPEKAPKLLIYYDAFLSSGVSDRFSGSKSGTSASLAIRGLQSDDEADYYCAAWDDSLYSWVFGGGTKLTVLGQPKAAPSVTLFPPSSEELQANKATLVCLISDFYPGAVTVAWKADSSPVKAGVETTTPSKQSNNKYAASSYLSLTPEQWKSHRSYSCQVTHEGSTVEKTVAPTECS heavy: not shown | EC50 [14]: 0.53 nM |
